Laboratory results published in patent publication US20160031999A1 (CSL, published 2016).

T1: V117E mutant of soluble human IL-11Rα (SEQ ID NO: 95) (human, UniProt Q14626 23-318)
T1 construct: also called V95E
T1 sequence: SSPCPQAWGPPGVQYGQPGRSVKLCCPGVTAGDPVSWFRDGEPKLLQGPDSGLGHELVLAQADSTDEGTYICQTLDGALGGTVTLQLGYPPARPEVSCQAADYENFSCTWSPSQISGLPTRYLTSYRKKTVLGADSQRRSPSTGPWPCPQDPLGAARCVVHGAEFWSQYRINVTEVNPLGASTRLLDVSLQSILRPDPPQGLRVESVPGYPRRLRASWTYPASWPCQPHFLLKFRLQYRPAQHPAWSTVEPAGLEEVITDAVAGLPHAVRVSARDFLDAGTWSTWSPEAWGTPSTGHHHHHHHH

T2: mouse IL-11Rα on transfected cells (mouse, UniProt P70225 24-424)
T2 construct: also called mIL-11Rα
T2 sequence: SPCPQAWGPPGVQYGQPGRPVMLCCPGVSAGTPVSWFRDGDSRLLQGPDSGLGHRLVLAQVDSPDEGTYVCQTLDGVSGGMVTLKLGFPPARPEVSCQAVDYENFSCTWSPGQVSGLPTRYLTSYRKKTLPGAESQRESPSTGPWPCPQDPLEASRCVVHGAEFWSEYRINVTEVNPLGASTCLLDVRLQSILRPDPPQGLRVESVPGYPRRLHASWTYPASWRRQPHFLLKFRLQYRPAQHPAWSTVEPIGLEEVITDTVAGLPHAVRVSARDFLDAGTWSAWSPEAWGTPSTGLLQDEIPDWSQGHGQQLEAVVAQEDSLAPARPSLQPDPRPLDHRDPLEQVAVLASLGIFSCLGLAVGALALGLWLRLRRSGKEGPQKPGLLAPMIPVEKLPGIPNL

T3: polypeptide of SEQ ID NO: 90 (amino acids 24 to 367 of mouse IL-11Rα, serine at position 206, 8×HIS tag) (mouse, UniProt Q64385 24-367)
T3 construct: also called soluble mIL-11Rα
T3 sequence: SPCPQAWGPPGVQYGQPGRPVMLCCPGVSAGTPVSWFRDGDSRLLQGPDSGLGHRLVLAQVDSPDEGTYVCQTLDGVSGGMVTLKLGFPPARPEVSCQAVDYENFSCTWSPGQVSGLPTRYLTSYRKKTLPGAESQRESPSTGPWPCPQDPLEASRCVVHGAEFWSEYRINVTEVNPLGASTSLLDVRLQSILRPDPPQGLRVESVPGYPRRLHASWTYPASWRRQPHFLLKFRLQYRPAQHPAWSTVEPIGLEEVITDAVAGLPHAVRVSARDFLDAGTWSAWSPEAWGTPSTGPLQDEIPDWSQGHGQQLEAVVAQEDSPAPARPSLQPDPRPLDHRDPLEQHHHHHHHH

T4: polypeptide of SEQ ID NO: 86 (human IL-11Rα 23-110 and mouse IL-11Rα 111-367, 8×HIS tag) (human and mouse (chimera), UniProt Q64385 23-367 (mouse entry))
T4 chain: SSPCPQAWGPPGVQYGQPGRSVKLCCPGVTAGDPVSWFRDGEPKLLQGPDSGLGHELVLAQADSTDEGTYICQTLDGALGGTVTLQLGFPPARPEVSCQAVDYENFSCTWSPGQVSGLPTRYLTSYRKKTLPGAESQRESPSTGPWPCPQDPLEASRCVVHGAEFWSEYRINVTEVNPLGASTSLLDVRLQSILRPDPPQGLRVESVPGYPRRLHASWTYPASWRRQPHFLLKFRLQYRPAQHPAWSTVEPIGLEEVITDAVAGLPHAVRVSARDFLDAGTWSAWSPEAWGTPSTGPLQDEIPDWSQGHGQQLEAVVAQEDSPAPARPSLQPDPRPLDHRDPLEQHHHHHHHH

T5: polypeptide of SEQ ID NO: 89 (mouse IL-11Rα 24-215 and human IL-11Rα 216-363, 8×HIS tag) (mouse and human (chimera), UniProt P70225 24-363)
T5 chain: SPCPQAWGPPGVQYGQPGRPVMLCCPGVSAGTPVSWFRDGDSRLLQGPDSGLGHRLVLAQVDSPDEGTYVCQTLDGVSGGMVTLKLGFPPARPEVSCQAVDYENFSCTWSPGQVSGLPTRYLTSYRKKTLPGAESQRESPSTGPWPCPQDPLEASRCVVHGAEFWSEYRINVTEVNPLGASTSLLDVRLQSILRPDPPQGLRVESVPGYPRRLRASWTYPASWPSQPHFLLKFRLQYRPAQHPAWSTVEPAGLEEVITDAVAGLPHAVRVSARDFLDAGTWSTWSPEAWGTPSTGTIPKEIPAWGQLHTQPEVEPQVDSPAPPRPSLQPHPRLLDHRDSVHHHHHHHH


Tests used:
[1] = target: T1, V117E mutant of soluble human IL-11Rα …; assay: Biacore, antibody captured on anti-human IgG Fc, receptor injected; mean ± SE, N = 4
Method: Various point mutants of soluble forms of IL-11R were produced in which amino acids from mIL-11 were introduced into a soluble form of hIL-11 (SEQ ID NO: 85) (see Table 5 for positions of mutations relative to SEQ ID NO: 1 and for reference to the SEQ ID NO: of each polypeptide) and the binding of antibodies to those polypeptides or to polypeptides of SEQ ID NO: 3 or SEQ ID NO: 85 was determined using Biacore analysis or FACS.
Anti human IgG Fc specific antibody was chemically immobilized on a CM5 chip to ˜9000 RU. Antibodies were captured at about 0.3-1 μg/ml for 120 seconds on 2 spots in each flow cell. Adjacent spots consisting of only anti human IgG were used as a reference. IL-11 receptors were injected over the captured antibodies and reference spots at 40, 10, 5 and 2.5 nM in duplicate. Blank injections of buffer only were also performed in duplicate. Injection was performed for 3 minutes and dissociation monitored for a further 5 minutes.

[2] = target: T2, mouse IL-11Rα on transfected cells; assay: binding to transfected cells
[3] = target: T3, polypeptide of SEQ ID NO: 90 (amino …); assay: Biacore, antibody captured; N/B: no or ablated binding
Method: (§1) Various soluble forms of IL-11R comprising regions of hIL-11R and mIL-11R were produced and comprise sequences as set forth in SEQ ID NOs: 3 and 86-90 and the binding of antibodies 8E2, 8D10 and 8E4 to those polypeptides was determined using Western blotting or Biacore analysis.
(§2) For Biacore analysis, anti-human was IgG immobilized on the sensor surface at ˜10,000-12,000 RU and each antibody was captured at between 0.2 μg/ml and 0.5 μg/ml every cycle for 120 seconds. IL-11 receptors were injected over captured antibodies at varying concentrations, ranging from 1 μM down to 2.5 nM, including injections of buffer blanks. Association was monitored for 3-5 minutes, dissociation was monitored for 3-10 minutes. Approximate affinities were determined by fitting binding curves of each interaction to a 1:1 Kinetic Model.

[4] = target: T4, polypeptide of SEQ ID NO: 86 (human …); assay: as above
Method: as §1, §2

[5] = target: T5, polypeptide of SEQ ID NO: 89 (mouse …); assay: as above
Method: as §1, §2

Binder | Kd [1] [nM] | binding result [2] | binding result [3] | binding result [4] | binding result [5]
antibody 8E4 (antibody, human IgG4 S228P, lambda, V domains shown) VH: EVQLLESGGGLVQPGGSLRLSCAASGFTFSWYFMGWVRQAPGKGLEWVSYIYPSGGSTGYADSVKGRFTISRDNSKNTLYLQMHSLRAEDTAVYYCARDEGYCSSTSCYFDAFDIWGQGTMVTVSS VL: QSALTQPPSASGSPGQSVAISCTGTSSDVGGYNFVSWYQQHPGKAPKLLIYEVTKRPSGVPDRFSGSKAGNTASLTVSGLQAEDEADYYCSSYGGSNNAGVFGTGTKVTVLG | 5.54 | – | – | – | –
antibody 8D10 (antibody, human IgG4 S228P, kappa, V domains shown) VH: EVQLLESGGGLVQPGGSLRLSCAASGFTFSRYMMGWVRQAPGKGLEWVSSIVPSGGITIYADSVKGRFTISRDNSKNTLYLQMNSLRAEDTAVYYCARDHMGIVATDWGQGTLVTVSS VL: DIQMTQSPSSLSASVGDRVTITCQASQDITNYLNWYLHKPGKAPKLLIYDASNLQTGVPSRFSGSGSGTDFTFTITSLQPEDFGTYYCQQYDTLHPSFGPGTTVDIKR | – | no binding | no binding | no binding | no binding
